The results in this text go back to patent publication US20050123972A1 (Bristol-Myers Squibb, published 2005).

Sequences and labels used below:
T1: wild-type human CCR3 (endogenous, on native human eosinophils) (human, UniProt P51677 1-355)
T1 construct: This is the endogenous receptor on human eosinophils; also called eotaxin receptor; wild-type intact receptor in eosinophils
T1 sequence: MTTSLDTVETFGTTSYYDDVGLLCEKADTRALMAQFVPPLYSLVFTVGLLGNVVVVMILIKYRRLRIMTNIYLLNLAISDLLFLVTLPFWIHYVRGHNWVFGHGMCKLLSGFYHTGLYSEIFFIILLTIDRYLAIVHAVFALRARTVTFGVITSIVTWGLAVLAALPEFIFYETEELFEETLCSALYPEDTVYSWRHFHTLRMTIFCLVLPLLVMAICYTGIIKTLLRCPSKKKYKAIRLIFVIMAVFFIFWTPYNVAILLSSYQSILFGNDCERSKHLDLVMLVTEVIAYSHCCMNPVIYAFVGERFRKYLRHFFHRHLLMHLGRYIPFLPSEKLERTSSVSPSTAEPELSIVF

B1: human eotaxin (125I-labeled human eotaxin, Perkin Elmer #NEX-314; unlabeled recombinant human eotaxin, R&D Systems #320-EO/CF) (ligand)
chain: not shown
modifications: 125I label (position not given) on the tracer form
notes: also called labeled (hot) eotaxin
B2: chimeric CCR3/2 receptor (human CCR3 residues 1-310 joined to the cytoplasmic tail of human CCR2 isoform B), expressed on CHO-K1 cells (receptor)
chain: MTTSLDTVETFGTTSYYDDVGLLCEKADTRALMAQFVPPLYSLVFTVGLLGNVVVVMILIKYRRLRIMTNIYLLNLAISDLLFLVTLPFWIHYVRGHNWVFGHGMCKLLSGFYHTGLYSEIFFIILLTIDRYLAIVHAVFALRARTVTFGVITSIVTWGLAVLAALPEFIFYETEELFEETLCSALYPEDTVYSWRHFHTLRMTIFCLVLPLLVMAICYTGIIKTLLRCPSKKKYKAIRLIFVIMAVFFIFWTPYNVAILLSSYQSILFGNDCERSKHLDLVMLVTEVIAYSHCCMNPVIYAFVGERFRKYLSVFFRKHITKRFCKQCPVFYRETVDGVTSTNTPSTGEQEVSAGL
notes: Expressed from the pFLAG-CMV-3 vector in CHO-K1 cells; also called CCR3/2 chimera; CHO CCR3/2 clone 5.5

Experiment [1] has as its target T1, wild-type human CCR3 (endogenous, on …). Briefly: 125I-eotaxin binding to cells, filter plate assay. As to the method:
(§1) Invest. 97:604). In order to compare the ability of cells expressing chimeric human CCR3/2 molecules to that of cells expressing endogenous human CCR3 to bind eotaxin, a binding assay was performed. Depending upon the questions being asked, the cells in question were either human or mouse eosinophils, CHO-K1 cells expressing recombinant CCR3 or CCR3/2, parental CHO-K1 cells or other cell types. All assay steps were conducted at room temperature. Multiscreen assay plates (#MABVN1250, Millipore Inc., Marlborough, Mass.) were incubated with 100 μl/well of blocking solution (7.5 μg/ml protamine in PBS) to block non-specific binding. After 20 minutes, the blocking solution was removed and replaced with 100 μl of binding buffer, (RPMI 1640 (Life Technologies, Grand Island, N.Y.) containing 0.1% bovine serum albumin and 20 mM HEPES buffer) and incubated for at least an additional 10 minutes.
(§2) When ready to use plate(s), the following procedure was employed. […]
(§3) Binding data were analyzed using Microsoft EXCEL and then graphed using […] […]

Experiment [2] deals with B1. Briefly: 125I-eotaxin binding to CHO CCR3/2 clone 5.5 cells, filter plate assay (FIG. 1). As to the method:
as §1, §2, §3

As for B1, the binding result in experiment [1] was “binds”.
Turning to B2, the binding result in experiment [2] is “binds”.
